Measurements from patent publication US20150239991A1 (GLENMARK PHARMACEUTICALS S A, published 2015).
Read-outs that look alike come from different tables or passages of the source.

Key:
human FcRn [1] = molecular target: T1, human FcRn (human, UniProt P55899 24-297; P61769 21-119); test: SPR on human FcRn at pH 6.0, steady state KD expressed as ratio to the unmodified IGHG1 control
T1 construct: range 24-297;range 21-119; Alpha chain non-covalently associated with beta2-microglobulin; used as analyte at pH 6.0; also called human neonatal Fc receptor; soluble form of the extracellular region of the human FcRn

human FcRn [2] = molecular target: T1, human FcRn; test: SPR (BIAcore 2000): immunoglobulin amine-coupled to a CM5 chip, human FcRn injected as analyte at pH 6.0, steady state affinity model
Protein G [3] = molecular target: T2, Protein G (group C and G Streptococci, UniProt P19909 303-427); test: Protein G gradient mode chromatography (HiTrap Protein G HP column), A280 trace against pH gradient
T2 construct: Two commercial resins used (Sepharose 4 Fast Flow for capture-elution, HiTrap HP for gradient); also called Protein G Sepharose™ 4 Fast Flow resin; HiTrap™ Protein G HP column

Protein G [4] = molecular target: T2, Protein G; test: as above; remark: listed apart in the source
Protein G [5] = molecular target: T2, Protein G; test: as above; remark: listed apart in the source
MabSelect™ Protein A = molecular target: T3, MabSelect™ Protein A (Staphylococcus aureus, UniProt P38507 37-327); test: Protein A gradient mode chromatography (HiTrap MabSelect column), A280 trace against pH gradient
T3 construct: also called HiTrap™ MabSelect™ Protein A column; MabSelect™ resin

T1 sequence (P55899 24-297 limits assumed, form in doubt, chain 1 of 2): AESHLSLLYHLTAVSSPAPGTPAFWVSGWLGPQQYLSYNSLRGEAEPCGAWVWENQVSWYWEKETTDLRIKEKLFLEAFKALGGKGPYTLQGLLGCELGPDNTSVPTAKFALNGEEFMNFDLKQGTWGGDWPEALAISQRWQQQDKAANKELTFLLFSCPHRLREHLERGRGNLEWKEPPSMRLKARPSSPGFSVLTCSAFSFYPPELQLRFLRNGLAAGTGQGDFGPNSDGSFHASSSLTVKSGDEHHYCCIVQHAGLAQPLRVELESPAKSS
T1 sequence (P61769 21-119 limits assumed, form in doubt, chain 2 of 2): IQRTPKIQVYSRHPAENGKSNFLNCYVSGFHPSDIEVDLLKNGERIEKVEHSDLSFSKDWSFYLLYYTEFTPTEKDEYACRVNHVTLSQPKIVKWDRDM

B1: Anti-hCD19 FAB-Fc S426M/M428G/H433D/N434A (antibody, human IgG1, kappa)
heavy chain: QVQLVQSGGGVVQPGRSLRLSCAASGVSLPDYGVSWVRQAPGKGLEWVAVIWGSETTYYNSALKSRFTISRDNSKNTLYLQMNSLRAEDTAVYYCAKHYYYGGSYAMDYWGQGTLVTVSSASTKGPSVFPLAPSSKSTSGGTAALGCLVKDYFPEPVTVSWNSGALTSGVHTFPAVLQSSGLYSLSSVVTVPSSSLGTQTYICNVNHKPSNTKVDKKVEPKSCDKTHTCPPCPAPELLGGPSVFLFPPKPKDTLMISRTPEVTCVVVDVSHEDPEVKFNWYVDGVEVHNAKTKPREEQYNSTYRVVSVLTVLHQDWLNGKEYKCKVSNKALPAPIEKTISKAKGQPREPQVYTLPPSRDELTKNQVSLTCLVKGFYPSDIAVEWESNGQPENNYKTTPPVLDSDGSFFLYSKLTVDKSRWQQGNVFSCMVGHEALDAHYTQKSLSLSPGK
light chain: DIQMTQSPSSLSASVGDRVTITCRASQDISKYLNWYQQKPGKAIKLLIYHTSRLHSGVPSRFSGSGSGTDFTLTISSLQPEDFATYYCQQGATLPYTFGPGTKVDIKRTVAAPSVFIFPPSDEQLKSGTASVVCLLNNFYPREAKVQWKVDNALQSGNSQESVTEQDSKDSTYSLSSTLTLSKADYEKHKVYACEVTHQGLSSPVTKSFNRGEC
With B1 the “KD ratio (IGHG1/mutant)” value (human FcRn [1]) was 0.48.

B2: anti-hCD19 FAB-Fc 133 (antibody, human IgG1, kappa)
heavy: QVQLVQSGGGVVQPGRSLRLSCAASGVSLPDYGVSWVRQAPGKGLEWVAVIWGSETTYYNSALKSRFTISRDNSKNTLYLQMNSLRAEDTAVYYCAKHYYYGGSYAMDYWGQGTLVTVSSASTKGPSVFPLAPSSKSTSGGTAALGCLVKDYFPEPVTVSWNSGALTSGVHTFPAVLQSSGLYSLSSVVTVPSSSLGTQTYICNVNHKPSNTKVDKKVEPKSCDKTHTCPPCPAPELLGGPSVFLFPPKPKDTLMISRTPEVTCVVVDVSHEDPEVQFKWYVDGVEVHNAKTKPREEQYNSTFRVVSVLTVLHQDWLNGKEYKCKVSNKALPAPIEKTISKTKGQPREPQVYTLPPSREEMTKNQVSLTCLVKGFYPSDIAVEWESSGQPENNYNTTPPMLDSDGSFFLYSKLTVDKSRWQQGNIFSCSVMHEALHNRFTQKSLSLSPGK
light: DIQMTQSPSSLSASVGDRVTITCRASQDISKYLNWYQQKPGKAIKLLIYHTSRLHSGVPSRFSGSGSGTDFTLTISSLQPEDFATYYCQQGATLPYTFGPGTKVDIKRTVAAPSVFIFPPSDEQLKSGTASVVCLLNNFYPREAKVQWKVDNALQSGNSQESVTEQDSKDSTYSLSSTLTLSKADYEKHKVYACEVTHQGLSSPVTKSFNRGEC
notes: copies: 2 + 2
For B2, the “KD ratio (IGHG1/mutant)” value (human FcRn [1]) was 0.73 and the Kd (human FcRn [2]) was 2680 nM.

B3: anti-hCD19 FAB-Fc 113 (antibody, human IgG1, kappa)
heavy: QVQLVQSGGGVVQPGRSLRLSCAASGVSLPDYGVSWVRQAPGKGLEWVAVIWGSETTYYNSALKSRFTISRDNSKNTLYLQMNSLRAEDTAVYYCAKHYYYGGSYAMDYWGQGTLVTVSSASTKGPSVFPLAPSSKSTSGGTAALGCLVKDYFPEPVTVSWNSGALTSGVHTFPAVLQSSGLYSLSSVVTVPSSSLGTQTYICNVNHKPSNTKVDKKVEPKSCDKTHTCPPCPAPELLGGPSVFLFPPKPKDTLMISRTPEVTCVVVDVSHEDPEVKFNWYVDGVEVHNAKTKPREEQYNSTYRVVSVLTVLHQDWLNGKEYKCKVSNKALPAPIEKTISKAKGQPREPQVYTLPPSREEMTKNQVSLTCLVKGFYPSDIAVEWESSGQPENNYNTTPPMLDSDGSFFLYSKLTVDKSRWQQGNIFSCSVMHEALHNRFTQKSLSLSPGK
light: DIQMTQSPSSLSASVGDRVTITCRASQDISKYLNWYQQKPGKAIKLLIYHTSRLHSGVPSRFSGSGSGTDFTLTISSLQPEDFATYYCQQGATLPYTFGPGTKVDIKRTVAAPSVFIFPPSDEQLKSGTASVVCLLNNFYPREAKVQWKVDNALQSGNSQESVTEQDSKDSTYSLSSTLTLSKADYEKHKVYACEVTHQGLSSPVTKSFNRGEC
notes: copies: 2 + 2
For B3, the “KD ratio (IGHG1/mutant)” value (human FcRn [1]) was 0.76.

B4: Fc M252A/E380A/E382A/Y436A/Q438A (other)
chain: DKTHTCPPCPAPELLGGPSVFLFPPKPKDTLAISRTPEVTCVVVDVSHEDPEVKFNWYVDGVEVHNAKTKPREEQYNSTYRVVSVLTVLHQDWLNGKEYKCKVSNKALPAPIEKTISKAKGQPREPQVYTLPPSRDELTKNQVSLTCLVKGFYPSDIAVAWASNGQPENNYKTTPPVLDSDGSFFLYSKLTVDKSRWQQGNVFSCSVMHEALHNHATAKSLSLSPGK
notes: Homo-dimeric human IGHG1 Fc variant, EU numbering
B4: no binding (Protein G [3]).

B5: Fc S254M/E380M/E382L/S426M/M428G (other)
chain: DKTHTCPPCPAPELLGGPSVFLFPPKPKDTLMIMRTPEVTCVVVDVSHEDPEVKFNWYVDGVEVHNAKTKPREEQYNSTYRVVSVLTVLHQDWLNGKEYKCKVSNKALPAPIEKTISKAKGQPREPQVYTLPPSRDELTKNQVSLTCLVKGFYPSDIAVMWLSNGQPENNYKTTPPVLDSDGSFFLYSKLTVDKSRWQQGNVFSCMVGHEALHNHYTQKSLSLSPGK
notes: as for B4
B5: no binding (Protein G [4]).

B6: Fc S426M/M428G/H433D/N434A (other)
chain: DKTHTCPPCPAPELLGGPSVFLFPPKPKDTLMISRTPEVTCVVVDVSHEDPEVKFNWYVDGVEVHNAKTKPREEQYNSTYRVVSVLTVLHQDWLNGKEYKCKVSNKALPAPIEKTISKAKGQPREPQVYTLPPSRDELTKNQVSLTCLVKGFYPSDIAVEWESNGQPENNYKTTPPVLDSDGSFFLYSKLTVDKSRWQQGNVFSCMVGHEALDAHYTQKSLSLSPGK
notes: as for B4
B6: no binding (Protein G [5]).

B7: Anti-HER2 FAB R19G/T57A/Y59A (Fab)
heavy chain: EVQLVESGGGLVQPGGSLGLSCAASGFNIKDTYIHWVRQAPGKGLEWVARIYPTNGYARAADSVKGRFTISADTSKNTAYLQMNSLRAEDTAVYYCSRWGGDGFYAMDYWGQGTLVTVSSASTKGPSVFPLAPSSKSTSGGTAALGCLVKDYFPEPVTVSWNSGALTSGVHTFPAVLQSSGLYSLSSVVTVPSSSLGTQTYICNVNHKPSNTKVDKKVEPKSC
light chain: not shown
notes: also called combination R19G/T57A/Y59A
B7: no binding (MabSelect™ Protein A).
